The source of these data is IntAct's records for PubMed 27309808.

B1: Sperm-egg fusion protein Juno (Homo sapiens), A6ND01-1 (parent)
chain: MACWWPLLLELWTVMPTWAGDELLNICMNAKHHKRVPSPEDKLYEECIPWKDNACCTLTTSWEAHLDVSPLYNFSLFHCGLLMPGCRKHFIQAICFYECSPNLGPWIQPVGSLGWEVAPSGQGERVVNVPLCQEDCEEWWEDCRMSYTCKSNWRGGWDWSQGKNRCPKGAQCLPFSHYFPTPADLCEKTWSNSFKASPERRNSGRCLQKWFEPAQGNPNVAVARLFASSAPSWELSYTIMVCSLFLPFLS
B2: Izumo sperm-egg fusion protein 1 (Homo sapiens), Q8IYV9-1 (parent)
chain: MGPHFTLLCAALAGCLLPAEGCVICDPSVVLALKSLEKDYLPGHLDAKHHKAMMERVENAVKDFQELSLNEDAYMGVVDEATLQKGSWSLLKDLKRITDSDVKGDLFVKELFWMLHLQKETFATYVARFQKEAYCPNKCGVMLQTLIWCKNCKKEVHACRKSYDCGERNVEVPQMEDMILDCELNWHQASEGLTDYSFYRVWGNNTETLVSKGKEATLTKPMVGPEDAGSYRCELGSVNSSPATIINFHVTVLPKMIKEEKPSPNIVTPGEATTESSISLQPLQPEKMLASRLLGLLICGSLALITGLTFAIFRRRKVIDFIKSSLFGLGSGAAEQTQVPKEKATDSRQQ

Variants of B1 are the subject of one assay. The conditions noted are these: with IZUMO1, Q8IYV9-1.
L81A: the “effect of a mutation on the interaction” value is “decreasing interaction strength”.

For the variant M83A, the “effect of a mutation on the interaction” value was “decreasing interaction strength”. As for W62A, the “effect of a mutation on the interaction” value is given as “decreasing interaction strength”.

Variants of B2 are the subject of a further assay. Particulars: with IZUMO1R.
As to W148A, the “effect of a mutation on the interaction” value is given as “decreasing interaction strength”.
